Data taken from the DeepSol protein solubility set.

Test: soluble on expression in E. coli; label from the status in PepcDB or PDB records

Sequence: MGSDKIHHHHHHMKCFFESEEFEKAVEKIDRLYEKVDSIEEAEIAFLREKKPFQGVAVVKEETYTIYKTGEKLVELEDPEKAASIAYILAGEKLLSGGWVRRMVSGLLQAMIVLMEIEDENGWSHSQRVARLAERVGKKLGLSEEKLSLLREYAMLHDVGKIGIEQLMLYTPTRIRIFEQYPQDHTIMGSVFLASLEVLWDVVPIVRHHHENWDGTGYPDGLKGEEIPLEARIISVCDYYDVLTNFVSSEWEGRTKTHEEALEIIKKEAGKKFDPKVVEAFLEIFSDEAVE
- soluble on expression in E. coli: not soluble

Sequence: MPQVETTSVFRADLLKEMESSTGTAPASTGAENLPAGSALLVVKRGPNAGARFLLDQPTTTAGRHPESDIFLDDVTVSRRHAEFRINEGEFEVVDVGSLNGTYVNREPRNAQVMQTGDEIQIGKFRLVFLAGPAELEHHHHHH
- soluble on expression in E. coli: soluble

Sequence: MGSDKIHHHHHHMKLAFICTEKLPAPAVRGGAIQMMIDGVTPYFSSRYDLTIFSIEDPSLPKRETKDGVHYIHLPKEHYREAVAEELRASSFDLIHVFNRPLNVSLYKKASPNSKIVLSLHNEMFSEKKMTFAQGKEVLDNVSMITTVSEFIKQTVIERFPEAEDITKVVYSGVDLNSYPPVWTMKGSAVRKTYRKKYGIEDKKVILFAGRLSPTKGPHLLIHSMRRILQQHPDAVLVIAGGKWFSDDSENQYVTYLRTLALPYRDHIIFTKFIPADDIPNLFLMADVFVCSSQWNEPLARVNYEAMAAGTPLITTNRGGNGEVVKHEVTGLVIDSYNKPSSFAKAIDRAFTDQELMNKMTKNARKHVEALFTFTHAAKRLNTVYQSVLTPKNKQFPPPFLTQNFDLSSINQLFVKAKT
- soluble on expression in E. coli: not soluble

Sequence: MGHHHHHHGGHMSLGALILSDRDIRALLAIGDLVVEPLSGDTVRENGLDLRLGRGFCRFKRSDRVLDPRAPGSPGEFYECGEGDEIIVGPGEHMLLHTQEYIRLPGYVAGLVNLRSTWARTGIYIPATVVDAGFEGQLTIEVVGSGFPVKLYPGDRFLHLVLVKLQSPAMNPYRGRYQGQRGVRLPKLFAKNTGEGGS
- soluble on expression in E. coli: soluble

Sequence: AIAMWQDQPMPSMDLVKNAFWNYVSQATLTAEETLQMIRNSELGQEINDRISKSTDAINKYTLAIQSQVTPLTQELLTKLSKEADQLKLSLEQEITSAQTQLKPYVEELKVDIEEQIERLKKDVAPYAEALNPEAMRLTLVQRAEELKAKLETSLMAMGPQSEELKQKLEQHFVEFQMSMSPLAESFQSQLAQRSQELQKNLAPYSEELSKLDPLAQDLKDQLTALWESFAKDKQS
- soluble on expression in E. coli: soluble

Sequence: SNAMKWKKSLAGLSSYKPGKREEEVMAELGLTKITKLSSNENPLGTSKKVAAIQANSSVETEIYPDGWASSLRKEVADFYQLEEEELIFTAGVDELIELLTRVLLDTTTNTVMATPTFVQYRQNALIEGAEVREIPLLQDGEHDLEGMLNAIDEKTTIVWICNPNNPTGNYIELADIQAFLDRVPSDVLVVLDEAYIEYVTPQPEKHEKLVRTYKNLIITRTFSKIYGLASARVGYGIADKEIIRQLNIVRPPFNTTSIGQKLAIEAIKDQAFIGECRTSNANGIKQYEAFAKRFEKVKLYPANGNFVLIDLGIEAGTIFSYLEKNGYITRSGAALGFPTAVRITIGKEEDNSAVIALLEKLL
- soluble on expression in E. coli: soluble

Sequence: MAVYANTSVQDFYEFWLEEVKKKSLSYNSYYSFKKTVQNYILPLYGRLSMGKLRKNHVKRIYKKTYETSPSVAKIVKTVLTTSFKYALRYGYVEEDYVTGLKWNRVILEHHHHHH
- soluble on expression in E. coli: not soluble

Sequence: MSELEKTFGIKVSPGAIYPILSSLRKSGLIEVAREGKREKKLYRITEKGEEYLKKHEDEVEEALEIANKLKEFSELGGREVAQVLREVIENIDKLSEEQKTALAREFSEFVKRIKIILLGGE
- soluble on expression in E. coli: soluble

Sequence: GPGSMTVVRAALLGFGTVGQGIYKIVQQRREQLKQKLGGAELVIVKILVRDLRKRSRVLPDGYASDAKLFTNNIEDVFRADVQVIFEATVGEEPAFTYLQRAIVEHGCSVITANKVMFARYGATLQELAASCTPTSSFPATRVYVGFEATVAAGVPIIKTLQNMCHVQQVRKIEGIVNGTSNYILTELREYPEKSFEEVLKKSQELGYAEADPTNDISGHDAFMKLLVMVAIAFGHQPSRSTVPVTGIDTLTPEMLQDARAKGLRYRHVVSAAMEGAATSSCALKSSAAEGEEAQPRTPPLHERLTCSVKPMLLGPEHPLYHMDGTTSAVSVWTDYLGVVTISGPGAGMYCTASAMMEDYAVWMEAFRRP
- soluble on expression in E. coli: not soluble

Sequence: MGSDKIHHHHHHMRLRHIEIFHAIYTTGSITNAAKILHVSQPSVSKVLSHAEMQLGFDLFERVKGRLTPTDEAEMLFDEVDKIYQQMRSIKNTAENIKKSEYGQINIAGSPALGFDVIPSAIAKYHHKHHQVNFNVQTVHNDAVMQTLLEHKCDLAILFAPNVMPGVTSIELAQSELVIVYPKVSFPDCPKELTLNQLKEFEYIDIGDSGPLADLLWTRMMKDNISLEALIKVQTYFIAARLVAQGVGICVVDRFTAEGNLSDNTAIASFNPPLTFPVKALYLENKSLSKVSQEFLSYLTTEFSDDSK
- soluble on expression in E. coli: not soluble

Sequence: MSARSLYQDTAVAALRDDLALALCAAAHHGLGEGVCNHFSVALPGQAGAFLLNPRGLMWSEVRAEDIVLVDAAGNKLAGRHEVEPTAMFIHAAIHQVAGKACVLHTHMPYATALTLTEARMLDTTLSQNAMRFHGRVAADRRYNGLALDAAEGERIARAMDGADIAFLGNHGVVVCGERIDYAFDDLYYLERACCAQVLAESSGRPLVPLDAALAASVAGQARSERLQSTLFFEALRRALGLEHHHHHH
- soluble on expression in E. coli: not soluble

Sequence: MGKIVLTYRMPHNWNINPFLKEYQRLLQRAIDEIWDNTSWKEKKVKHRYSLGNEEYRYYETIRLIPYFPQSNDFKRGLRNKLLREWPFAKHYVDSAIKTAYSILKSWRQNYLKGRRKRVKPVVKRKFVRVKTTLMKVEGSKIRITIKPREEYLELDFSREWFYERIKDWKVGELIIRERDILLTFSKEVEFSGRIKIGIDSNLTSLDVYHPEKGWIRVDLSELHRISETYDRIIDMLKSIQRKAPKRIGLLLEKYWTRRRNRIEDYLNKLAVQLSREFPDAIFIFEGLNKFKMLQNGSRKFNRKLSRATWKKIVGKLSYRVPIEFVNPAYTSSTCPICGSKLESRNGLVECFNCGFKADRQFVGAFNILMRGLGVALSGVERDDLPPNEPRGELNAMRPKSVVRVDLNGRRFTHIHSLEHHHHHH
- soluble on expression in E. coli: soluble

Sequence: MAHHHHHHMRSTPHGPPPHPRTSSVRQDAITYPYAYAAPGRQAPSAGYEHDDNTTAEAGPTRRCVPGRGNRAMPASNTGPYPSDVNRTLSYPEPAPARTAAPAVAIMQPSSPFEQDHTPVVYTVQNTTTDTHRHETEYGGVLTIRTTTVTRTITERLVASDEDDDSSENGEVYLDDARNEASVPSLHR
- soluble on expression in E. coli: not soluble

Sequence: MGSDKIHHHHHHMSDYYKTYDLKHVINASGKMTILGVSKVPEVAIQAQQFGDTHFFEIKDLVDKTGAYIAKKLGTEGAVVVNSASAGIAEAVAGIIGQGSKYHAYHPFSPRFTKREIILPKGQNVDYGTPEEVMIELGGGQVVEAGYANMCTPEHIEMMITEQTAAIFYVKSHHAVQKSMLTIPEALEVAHKHDLPLILDAAAEEDLKKYVDLGVDVVLFSGAKAIEGPASGLVFGKEPYIGWTKLQSLGIGRAMKIGKENILGFTTALIHYLDNGPESGDAMKARLHPFVAALNEVPHLNVKEVQDGAGRPIFRAAVTVEATSPNNAKQVTAELKAGDPAIYTREYRANEGIIEFDIRAVDQAEMDLIVTRLKEILA
- soluble on expression in E. coli: not soluble

Sequence: MSKEIDISIRYLENVLSTNNSTLILSSTAAVLEAVSKNCDTTNGELKRSIISLLRIIDKKCFLNQDVDVNQIKFSLQEVGKLSTKYPKSHQKPGNEVKVKTNAEFREIETVPNPDEENIDNLLNQLNLKKVPSFSPAFPDIGDDSDDENGITTKQKEEERAEQHGQKVCEEEVVKLPDGREIRMKKTKTVNVKQTTKHVTISTKSANMPEVSRTFMNARRGFDEDEEEENTNFGSSNMRGGDPFERFRSMLKDKDEKIEAIEGESSSDPGTPGSSSKSKTIERTSEVSQKVSEKKEKDGRLLAEHEASKLDKSNLFAKQVDTYQGAALIDRKGEGSYEESTLVRSALPQDSQVATPPRMHVVEYMMMFGDDKKNNENEYLKGTTISSYVRLNNNLTTHEEQFKKKIQFEFSTAGTSSTTIDLDNLSDLLNQTDFNCLRPPNKFLEDTPLIVEQPKAIDWQREPTSAPPEKDLLLEHDGVDYVIFREKEGKVLEVRGGPKDALIVYATQSTHSSLLYQEAFLITFRTFISSLELVNKLIKRYLYMSLADDSQSESIARHTFSVIVRIIDETTQYELDFDLITSVTSFVYRLIHDGNFTYSRILRTRLLDRIKDSFDIQTVLGTNLCKPRKPHDLFDFKSAEIACQLTFIDSQLYHRIESAELLWWAQEQNEKKSKNLVNFTEQFNNLSFWVRTLIITQGTQKERERHMMKFVKIMKHLREMCNFNSYLAILSAIMSTPLARLEWSKNIKDALKEHTAVMDTAQSYKNYRALLQTAKPPCVPYIGIILQDLTFVHAGNPDTIPSDRCHGAKNMINFLKRWNQFAILDSIRKLKKWNYDIKKNDIVVQYFNGFKDCIDEERTWQLSHQIKPSNRKSKTQA
- soluble on expression in E. coli: not soluble

Sequence: MGSDKIHHHHHHAEVDQATKPAEAKYYIAGTITDATTGQELTTAKVTLGDKSVTSSFNEQVNYKAEGYALVVSADGYYPVKRQVYLNQVSDGQTSVATVNVALVSVEAAVIPPVVPPTDPETDINEGEATKVADKAVEVAKPSESTVTDMLAGTTATPEEKKALDETLEMAGGMKVGETTPEVLADGSILAITPVKFTNPIQDAPAMVPYFYNEGCELTGDVKEVAAPVTRADGAVAADIQKAFLSNAAKALNMNAGFVQKIGYTRISVLNGYSILGYTIKGQLVSKKLTFLISGKYYEGIVSYQKSVMIYPNYYSHDSHDSHDSHGFNPNAGGGSND
- soluble on expression in E. coli: not soluble

Sequence: MAHHHHHHMETENVPLENEENQNENYEQEENTLAQEAEIVLITTSLGGIKSSFFSSLRAHQLLNCKKYIYFSIDANRDTSSAKNLKDIELFNKWKKGMILLSNENGIVLPQILIDGVPLGNDVTLQNLEDEGILDYIIARLKCPNCLIDKSNIEERCPGCKKYYVTLITDDLIQNDSVIRILQGEPYKEPENE
- soluble on expression in E. coli: soluble

Sequence: SLNSLASHTFISGSTGTGKSNTVYEILDEVRKHGVKFLVVEPVKGEYKHIFGNDENVSVYGTNPELSDLLRINPFAFPKGIHVLEHLDRLIEIFNVCWPMYAAMPAVLKNAVERAYEDSGWDLLKSINSYGDLYPTFADVTRNIKEIIDSSEYDNENKGAYKGSLLTRLESLTNGINGMIFTNQAITDKELFDENVIIDLSRVGSTETKSLIMGMLVLKLQEYRMTHTDSLNNILKHVTVLEEAHNILKRTSNEQSMEDSNLVGKSVEMIANGIAEMRTYGEGFIIADQAPGLMDMAVIRNTNTKIIMRLPDFSDRELVGKSANL
- soluble on expression in E. coli: not soluble

Sequence: MINKDEEVANRFSDPSKKLVEYVTDFSDMRDEDIELTKPIYENYGNFQLLNETGIIRTDEEIKELYNCKGEFGSTDEVTDMSF
- soluble on expression in E. coli: not soluble

Sequence: VTEEEIHAMLEEGSVAGIIEQQEHEMVRNVFRLDDRQLGSLMVPRADIIYLDTALPLEENMKRVVESEHSRFPVCHNGLQSLLGVVNAKQLLAQTIKGGVTNLAEHLQPCVYVPETLTGMELLDHFRTSGTQMVFVVDEYGEIQGLVTLQDMLEAVTGEFA
- soluble on expression in E. coli: not soluble

Sequence: MGSDKIHHHHHHMAGAFDAGFWLPVLERLPDFRGDCIDMGFYGQPKRPKVPRPLILAHSMGLAWALAHIPRPWAGVFAVNAFPRFTRSPTFVEGVPPRLIERMLARFDETPAQVTADFLTRCGLDNPDTSAIDAAPLKDELAWLARCDERTALRMLPCPVLALAGTSDPIVPQGMSTASFAPDTLTLVDGAGHLLPLTHPDWVAAQIRLFAARLEA
- soluble on expression in E. coli: not soluble
